Each block holds one substance with its values, some of them ahead of it.
Columns and labels:
[1] = target: frog NASP.Sc dimer (X. laevis NASP.S a.a. 23–495, Δ97–314; 'NASP.S core') (Xenopus laevis) (UniProt P06180); experiment: SEC-MALS; single purified protein on Superdex 200 Increase 10/300 GL; 20 mM Tris pH 7.5, 0.5 M NaCl; room temperature
[2] = target: Histone H3 (MBP fusion) 116-135 (Homo sapiens) (UniProt P68431); conditions: cited from earlier work
[3] = target: sNASPc dimer (human sNASP a.a. 30–340, Δ101–159; 'sNASP core') (human) (UniProt P49321); experiment: SEC-MALS; single purified protein on Superdex 200 Increase 10/300 GL; 20 mM Tris pH 7.5, 0.5 M NaCl; room temperature

Sequence of sNASP (P49321 2-788): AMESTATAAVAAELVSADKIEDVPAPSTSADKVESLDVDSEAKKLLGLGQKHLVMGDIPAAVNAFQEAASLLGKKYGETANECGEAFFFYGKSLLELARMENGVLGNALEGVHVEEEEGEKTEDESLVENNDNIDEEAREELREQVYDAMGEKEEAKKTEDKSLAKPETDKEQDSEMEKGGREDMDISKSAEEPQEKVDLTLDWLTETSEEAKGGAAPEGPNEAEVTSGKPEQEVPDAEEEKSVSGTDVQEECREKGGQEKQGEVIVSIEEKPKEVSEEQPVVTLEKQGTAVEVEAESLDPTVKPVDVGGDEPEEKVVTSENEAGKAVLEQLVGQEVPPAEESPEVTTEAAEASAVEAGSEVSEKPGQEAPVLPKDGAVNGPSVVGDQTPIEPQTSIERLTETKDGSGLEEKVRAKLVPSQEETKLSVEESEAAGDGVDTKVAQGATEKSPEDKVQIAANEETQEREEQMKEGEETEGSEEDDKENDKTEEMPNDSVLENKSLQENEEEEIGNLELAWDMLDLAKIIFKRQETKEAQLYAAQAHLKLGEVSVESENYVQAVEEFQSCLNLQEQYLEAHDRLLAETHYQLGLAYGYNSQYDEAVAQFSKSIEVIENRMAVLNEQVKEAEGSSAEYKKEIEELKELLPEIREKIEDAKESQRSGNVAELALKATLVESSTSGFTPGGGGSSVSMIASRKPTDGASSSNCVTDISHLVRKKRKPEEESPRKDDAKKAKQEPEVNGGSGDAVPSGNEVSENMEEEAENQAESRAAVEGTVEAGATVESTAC

- stoichiometry N [1]: 2
Substance: frog NASP.Sc dimer (X. laevis NASP.S a.a. 23–495, Δ97–314; 'NASP.S core') (from UniProt P06180 23-495) (domain or fragment)

Substance: sNASP (from UniProt P49321)
- Kd [2]: 61 nM

- stoichiometry N [3]: 2
Substance: sNASPc dimer (human sNASP a.a. 30–340, Δ101–159; 'sNASP core') (from UniProt P49321-2 30-340) (domain or fragment)

— publication PMC9122598, “NASP maintains histone H3–H4 homeostasis through two distinct H3 binding modes” (Nucleic Acids Research, 2022)
